In experiment [1] the target is T1, CD3 on T cells / Jurkat cells (human, UniProt P07766 23-207; P04234 22-171; P09693 23-182).
T1 construct: whole, on cells; Native CD3 complex on CD3+ T cells isolated from normal donors or on Jurkat cells; also called human CD3; CD3+ T cells
Put plainly: FACS on Jurkat cells expressing CD3.

Experiment [2] addresses T2, CD19 on NALM6 cells, Raji cells and primary B cells (human, UniProt P15391 20-556).
T2 construct: whole, on cells; Endogenous CD19 on human cell lines / donor B cells; also called NALM6 cells expressing CD19; Raji cells expressing CD19
T2 sequence (looked up): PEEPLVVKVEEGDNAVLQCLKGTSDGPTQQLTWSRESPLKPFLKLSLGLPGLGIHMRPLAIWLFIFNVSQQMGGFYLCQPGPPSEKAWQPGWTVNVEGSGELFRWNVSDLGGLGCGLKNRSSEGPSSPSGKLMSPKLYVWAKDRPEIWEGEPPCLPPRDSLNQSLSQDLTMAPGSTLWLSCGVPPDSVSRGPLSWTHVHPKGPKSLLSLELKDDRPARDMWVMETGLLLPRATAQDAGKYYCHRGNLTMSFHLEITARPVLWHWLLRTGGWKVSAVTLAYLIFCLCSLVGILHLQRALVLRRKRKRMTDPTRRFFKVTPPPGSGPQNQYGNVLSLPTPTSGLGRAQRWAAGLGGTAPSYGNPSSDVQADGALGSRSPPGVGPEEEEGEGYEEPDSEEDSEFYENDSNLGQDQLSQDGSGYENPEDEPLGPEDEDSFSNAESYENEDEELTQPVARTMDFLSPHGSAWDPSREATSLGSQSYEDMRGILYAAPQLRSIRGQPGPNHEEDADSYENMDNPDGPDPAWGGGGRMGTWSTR
Nature of the experiment: FACS on primary B cells from healthy donors' PBMC (FIG. 45D). The method, then: (§1) To evaluate the binding affinity of the generated bispecific antibodies to NALM6 cells, Raji cells, Primary B cells, DoHH2 cells, SU-DHL-1 cells and Jurkat cells, the NALM6 cells expressing CD19, Raji cells expressing CD19, Primary B cells, DoHH2 cells expressing CD20, SU-DHL-1 cells without expressing CD19 or CD20 and Jurkat cells expressing CD3 were stained by the test antibodies and the binding affinity was determined by FACS analysis. Primary B cells were isolated from healthy donors' PBMC by human B cell enrichment Kit (Stemcell #19054). The protocol of FACS analysis is described as follows: [0933] (a) The cells from each cell line above were harvested and centrifuged at 300 g for 5 min, and the supernatant were discarded. […] (b) The cells were washed 2 times with FACS buffer. [0935] (c) Step (a) was repeated. [0936] […] [0937] (e) Step (b) was repeated and the cells were resuspended with 100 μl/well diluted secondary antibody, and incubated at 4° C. for 45 minutes in the dark. [0938] (f) Step (b) was repeated and the cells were resuspended the cells with 150 μl/well FACS buffer and kept in dark for FACS analysis.

Experiment [3] has as its target T2, CD19 on NALM6 cells, Raji cells and …. Nature of the experiment: FACS on NALM6 cells expressing CD19, another experiment (FIG. 45B). The protocol: as §1
Experiment [4] has the same target. Nature of the experiment: FACS on NALM6 cells expressing CD19 (FIG. 45A).
The target is the same in experiment [5]. Nature of the experiment: FACS on Raji cells expressing CD19 (FIG. 45C). The method, then: as §1
The target in a further experiment is T3, CD3ε monomer (UniProt P07766 23-126).
T3 construct: also called nature CD3ε; denatured CD3ε monomer
Put plainly: ELISA, soluble protein coated at 0.2 or 2 ug/mL. On the technique in general: In an ELISA, binding on a coated surface is turned into a signal by an enzyme label.

Residue numbers refer to the chain shown, from its start. Names and notes keep the numbering of the source.

Consider six molecules from patent US20260193348A1 (ANTENGENE BIOLOGICS, published 2026).

T1 sequence (P07766 23-207, chain 1 of 3): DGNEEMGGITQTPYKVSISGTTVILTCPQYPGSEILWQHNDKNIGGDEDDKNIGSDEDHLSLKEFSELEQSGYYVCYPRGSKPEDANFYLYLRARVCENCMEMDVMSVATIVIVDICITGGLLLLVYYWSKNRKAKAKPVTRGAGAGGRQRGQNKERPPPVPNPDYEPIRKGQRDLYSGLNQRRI
T1 sequence (P04234 22-171, chain 2 of 3): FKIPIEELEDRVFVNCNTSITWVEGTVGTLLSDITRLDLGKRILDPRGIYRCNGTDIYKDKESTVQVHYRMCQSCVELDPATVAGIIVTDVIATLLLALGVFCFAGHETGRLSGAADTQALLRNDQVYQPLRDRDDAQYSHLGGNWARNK
T1 sequence (P09693 23-182, chain 3 of 3): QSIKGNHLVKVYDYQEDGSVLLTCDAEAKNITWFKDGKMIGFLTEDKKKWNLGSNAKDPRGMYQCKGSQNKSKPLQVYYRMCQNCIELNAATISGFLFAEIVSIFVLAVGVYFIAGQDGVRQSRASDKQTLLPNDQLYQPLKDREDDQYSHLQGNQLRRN
T3 sequence (P07766 23-126): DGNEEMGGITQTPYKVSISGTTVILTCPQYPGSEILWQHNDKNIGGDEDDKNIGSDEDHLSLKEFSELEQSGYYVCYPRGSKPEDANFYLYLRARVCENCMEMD

B1: ATG201-Y101F-19F (bispecific antibody, human IgG1, kappa, L234A L235A)
heavy 1: not shown
heavy 2: EVKLQESGPGLVAPSQSLSVTCTVSGVSLPDYGVSWIRQPPRKGLEWLGVIWGSETTYYNSALKSRLTIIKDNSKSQVFLKMNSLQTDDTAIYYCAKHYYYGGSYAMDYWGQGTSVTVSSASTKGPSVFPLAPSSKSTSGGTAALGCLVKDYFPEPVTVSWNSGALTSGVHTFPAVLQSSGLYSLSSVVTVPSSSLGTQTYICNVNHKPSNTKVDKKVEPKSCGGGGSGGGGSEVQLVQSGAEVKKPGSSVKVSCKASGYTFSSYVIHWVRQAPGQCLEWMGYINPYNDVIKYNEKFKGRVTLTSDKSTSTAYMELSSLRSEDTAVYYCARDSFYSYDGFAYWGQGTLVTVSSGGGGSGGGGSGGGGSGGGGSEIVLTQSPDFQSVTPKEKVTITCSASSSVSYMHWYQQKPDQSPKRLIYDTSKLASGVPSRFSGSGSGTDFTLTINSLEAEDAATYYCQQWSSNPPTFGCGTKVEIKGGGGSGGGGSDKTHTCPPCPAPEAAGGPSVFLFPPKPKDTLMISRTPEVTCVVVDVSHEDPEVKFNWYVDGVEVHNAKTKPREEQYNSTYRVVSVLTVLHQDWLNGKEYKCKVSNKALPAPIEKTISKAKGQPREPQVCTLPPSREEMTKNQVSLSCAVKGFYPSDIAVEWESNGQPENNYKTTPPVLDSDGSFFLVSKLTVDKSRWQQGNVFSCSVMHEALHNHYTQKSLSLSPGK
light: DIQMTQTTSSLSASLGDRVTISCRASQDISKYLNWYQQKPDGTVKLLIYHTSRLHSGVPSRFSGSGSGTDYSLTISNLEQEDIATYFCQQGNTLPYTFGGGTKLEITRTVAAPSVFIFPPSDEQLKSGTASVVCLLNNFYPREAKVQWKVDNALQSGNSQESVTEQDSKDSTYSLSSTLTLSKADYEKHKVYACEVTHQGLSSPVTKSFNRGEC
notes: CD19xCD3 Fab-scFv-Fab: two C19F Fabs, anti-CD3 scFv 40E9-L2H3-Y101F.H; L234A/L235A
Consider B1, for which the binding result in experiment [1] was “binds”. For the same molecule, the EC50 (commonly the concentration giving half of the maximal effect) turned out to be 0.468 nM in experiment [2], 0.609 nM in experiment [3], 4.36 nM in experiment [4] and 1.13 nM in experiment [5].

B2: ATG201-N55S-19F (bispecific antibody, human IgG1, kappa, L234A L235A)
heavy 1: not shown
heavy 2: B1 heavy 2 with N288S, F334Y
light: B1 light
notes: CD19xCD3 Fab-scFv-Fab: two C19F Fabs, anti-CD3 scFv 40E9-L2H3-N55S.H; L234A/L235A
For B2, in experiment [1], the binding result was “binds”. For the same molecule, the EC50 in experiment [2] worked out at 1.08 nM; in experiment [3] it was 0.847 nM; in experiment [4], 4.91 nM; in experiment [5] it was 1.5 nM.

B3: 40E9-L2H3 (antibody, V domains shown)
VH: EVQLVQSGAEVKKPGSSVKVSCKASGYTFSSYVIHWVRQAPGQCLEWMGYINPYNDVIKYNEKFKGRVTLTSDKSTSTAYMELSSLRSEDTAVYYCARDSYYSYDGFAYWGQGTLVTVSS
VL: EIVLTQSPDFQSVTPKEKVTITCSASSSVSYMHWYQQKPDQSPKRLIYDTSKLASGVPSRFSGSGSGTDFTLTINSLEAEDAATYYCQQWSSNPPTFGCGTKVEIK
notes: also called ch40E9-derived humanized antibody 40E9-L2H3
In the case of B3, the binding result with CD3ε monomer is “no binding”.

B4: 40E9-L2H3-N55S.H (antibody, V domains shown)
VH: B3 VH with N55S
VL: B3 VL
notes: also called 40E9-N55S
For the molecule B4, the binding result with CD3ε monomer is “no binding”.

B5: ATG201-D105R-19B (bispecific antibody, human IgG1, kappa, L234A L235A)
heavy 1: not shown
heavy 2: QVQLQQSGAELVRPGSSVKISCKASGYAFSSYWMNWVKQRPGQGLEWIGQIWPGDGDTNYNGKFKGKATLTADESSSTAYMQLSSLASEDSAVYFCARRETTTVGRYYYAMDYWGQGTTVTVSSASTKGPSVFPLAPSSKSTSGGTAALGCLVKDYFPEPVTVSWNSGALTSGVHTFPAVLQSSGLYSLSSVVTVPSSSLGTQTYICNVNHKPSNTKVDKKVEPKSCGGGGSGGGGSEVQLVQSGAEVKKPGSSVKVSCKASGYTFSSYVIHWVRQAPGQCLEWMGYINPYNDVIKYNEKFKGRVTLTSDKSTSTAYMELSSLRSEDTAVYYCARDSYYSYRGFAYWGQGTLVTVSSGGGGSGGGGSGGGGSGGGGSEIVLTQSPDFQSVTPKEKVTITCSASSSVSYMHWYQQKPDQSPKRLIYDTSKLASGVPSRFSGSGSGTDFTLTINSLEAEDAATYYCQQWSSNPPTFGCGTKVEIKGGGGSGGGGSDKTHTCPPCPAPEAAGGPSVFLFPPKPKDTLMISRTPEVTCVVVDVSHEDPEVKFNWYVDGVEVHNAKTKPREEQYNSTYRVVSVLTVLHQDWLNGKEYKCKVSNKALPAPIEKTISKAKGQPREPQVCTLPPSREEMTKNQVSLSCAVKGFYPSDIAVEWESNGQPENNYKTTPPVLDSDGSFFLVSKLTVDKSRWQQGNVFSCSVMHEALHNHYTQKSLSLSPGK
light: not shown
notes: CD19xCD3 Fab-scFv-Fab: two C19B Fabs, anti-CD3 scFv 40E9-L2H3-D105R.H; L234A/L235A
With B5, the binding result in experiment [1] is given as “binds”. In experiment [4], this molecule registered an EC50 of 2.9 nM.

B6: ch40E9 (antibody, V domains shown)
VH: EVQLQLSGPELVKPGASVKMSCKASGYTFSSYVIHWVKQKPGQGLEWIGYINPYNDVIKYNEKFKGKATLTSDKSSSTAYMELSSLTSEDSAVYYCARDSYYSYDGFAYWGQGTLVTVSA
VL: QIVLTQSPAIMSASPGEKVTMTCSASSSVSYMHWYQQKSGTSPKRWIYDTSKLASGVPARFSGSGSGTSYSLTISSMEAEDAATYYCQQWSSNPPTFGGGTKVEIK
notes: also called 40-C12-C10-E9
In the case of B6, in the experiment with CD3ε monomer, the binding result is recorded as “no binding”.
